Results: article PMC9560800
“And” between values parts separate entries of the source, which are not always exact repeats. Equal entries are not always repeated.

Assays:
[1] = molecular target: tag-less B.1.351 trimeric spike protein (SARS-CoV-2 | T4 phage); test: SEC-MALS
[2] = molecular target: tag-less B.1.617.2 trimeric spike protein (SARS-CoV-2 | T4 phage); test: SEC-MALS

| Substance | stoichiometry N [1] | stoichiometry N [2] |
| --- | --- | --- |
| tag-less B.1.351 trimeric spike protein | 3 and 6 |  |
| tag-less B.1.617.2 trimeric spike protein |  | 3 and 6 |
